From patent US20140087995A1 (published 2014)
Numbered stars: 1 amine (or outer) side, 2 acyl side, 3 side chain; on linkers, the order of the positions; unused ones are H or OH. Bridge positions count the residues as written; N and C are the ends. Side chains are listed from the residue outwards. Ends that are not written are not given here. * marks the point of attachment. C20 diacid = O=C(O)CCCCCCCCCCCCCCCCCCC(=O)*; γGlu = O=C(O)[C@H](CCC(=O)[*:2])N[*:1]; AEEA = NCCOCCOCC(=O)O

T1: human amylin 3(a) receptor (human calcitonin receptor + RAMP-3) (human, UniProt P30988 25-474; O60896 24-148, limits assumed)
T1 sequence (looked up) 1: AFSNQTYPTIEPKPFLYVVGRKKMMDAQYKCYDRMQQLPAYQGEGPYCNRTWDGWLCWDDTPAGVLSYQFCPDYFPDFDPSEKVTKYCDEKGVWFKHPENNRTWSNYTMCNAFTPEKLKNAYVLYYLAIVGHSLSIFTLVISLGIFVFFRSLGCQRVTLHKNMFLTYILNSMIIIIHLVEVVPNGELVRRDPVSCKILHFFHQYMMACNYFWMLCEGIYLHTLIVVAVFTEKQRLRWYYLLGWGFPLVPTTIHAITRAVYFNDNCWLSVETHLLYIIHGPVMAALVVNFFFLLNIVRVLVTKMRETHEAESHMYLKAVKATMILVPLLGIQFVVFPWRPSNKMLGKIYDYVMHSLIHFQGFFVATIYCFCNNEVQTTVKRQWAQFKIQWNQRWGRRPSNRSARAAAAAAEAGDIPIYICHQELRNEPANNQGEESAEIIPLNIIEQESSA
T1 sequence (looked up) 2: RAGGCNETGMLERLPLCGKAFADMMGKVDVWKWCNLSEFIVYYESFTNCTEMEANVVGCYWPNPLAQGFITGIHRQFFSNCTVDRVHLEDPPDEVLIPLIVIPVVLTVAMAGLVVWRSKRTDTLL

T2: human calcitonin receptor (human, UniProt P30988 25-474)
T2 sequence (looked up): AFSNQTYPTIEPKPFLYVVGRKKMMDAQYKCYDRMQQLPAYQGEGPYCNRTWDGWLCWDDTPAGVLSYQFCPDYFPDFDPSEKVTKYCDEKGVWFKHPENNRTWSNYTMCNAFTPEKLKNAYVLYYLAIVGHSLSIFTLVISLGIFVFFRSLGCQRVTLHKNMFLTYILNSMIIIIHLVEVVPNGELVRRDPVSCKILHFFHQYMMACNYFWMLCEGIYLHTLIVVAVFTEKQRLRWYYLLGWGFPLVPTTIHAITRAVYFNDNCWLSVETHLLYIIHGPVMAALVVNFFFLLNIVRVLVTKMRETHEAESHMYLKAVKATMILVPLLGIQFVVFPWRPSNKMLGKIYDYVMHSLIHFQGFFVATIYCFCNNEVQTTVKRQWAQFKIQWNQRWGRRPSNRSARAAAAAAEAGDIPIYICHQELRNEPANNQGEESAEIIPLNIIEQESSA

B1: N^α1-[2-[2-[2-[[2-[2-[2-[[(4S)-4-carboxy-4-(19-carboxynonadecanoylamino)butanoyl]amino]ethoxy]ethoxy]acetyl]amino]ethoxy]ethoxy]acetyl]-[Glu14,Arg17,Pro21,Pro27 … (peptide)
peptide: {C20 diacid-γGlu-AEEA-AEEA}-KCNTATCATQRLAEFLRHSSPNFGAIPSSTNVGSNTP-NH2
modifications: disulfide 2-7
SMILES: CC[C@H](C)[C@H](NC(=O)[C@H](C)NC(=O)CNC(=O)[C@H](Cc1ccccc1)NC(=O)[C@H](CC(N)=O)NC(=O)[C@@H]1CCCN1C(=O)[C@H](CO)NC(=O)[C@H](CO)NC(=O)[C@H](Cc1c[nH]cn1)NC(=O)[C@H](CCCNC(=N)N)NC(=O)[C@H](CC(C)C)NC(=O)[C@H](Cc1ccccc1)NC(=O)[C@H](CCC(=O)O)NC(=O)[C@H](C)NC(=O)[C@H](CC(C)C)NC(=O)[C@H](CCCNC(=N)N)NC(=O)[C@H](CCC(N)=O)NC(=O)[C@@H](NC(=O)[C@H](C)NC(=O)[C@@H]1CSSC[C@H](NC(=O)[C@H](CCCCN)NC(=O)COCCOCCNC(=O)COCCOCCNC(=O)CC[C@H](NC(=O)CCCCCCCCCCCCCCCCCCC(=O)O)C(=O)O)C(=O)N[C@@H](CC(N)=O)C(=O)N[C@@H]([C@@H](C)O)C(=O)N[C@@H](C)C(=O)N[C@@H]([C@@H](C)O)C(=O)N1)[C@@H](C)O)C(=O)N1CCC[C@H]1C(=O)N[C@@H](CO)C(=O)N[C@@H](CO)C(=O)N[C@H](C(=O)N[C@@H](CC(N)=O)C(=O)N[C@H](C(=O)NCC(=O)N[C@@H](CO)C(=O)N[C@@H](CC(N)=O)C(=O)N[C@H](C(=O)N1CCC[C@H]1C(N)=O)[C@@H](C)O)C(C)C)[C@@H](C)O
notes: also called compound 20
B2: N^ε1-[(4S)--4-carboxy-4-(19-carboxynonadecanoylamino)butanoyl]-[Glu14,Arg17,Pro21,Pro27,Pro37]-h-amylin (peptide)
peptide: K([γGlu-C20 diacid])CNTATCATQRLAEFLRHSSPNFGAIPSSTNVGSNTP-NH2
modifications: disulfide 2-7; N-terminus assumed
SMILES: CC[C@H](C)[C@H](NC(=O)[C@H](C)NC(=O)CNC(=O)[C@H](Cc1ccccc1)NC(=O)[C@H](CC(N)=O)NC(=O)[C@@H]1CCCN1C(=O)[C@H](CO)NC(=O)[C@H](CO)NC(=O)[C@H](Cc1c[nH]cn1)NC(=O)[C@H](CCCNC(=N)N)NC(=O)[C@H](CC(C)C)NC(=O)[C@H](Cc1ccccc1)NC(=O)[C@H](CCC(=O)O)NC(=O)[C@H](C)NC(=O)[C@H](CC(C)C)NC(=O)[C@H](CCCNC(=N)N)NC(=O)[C@H](CCC(N)=O)NC(=O)[C@@H](NC(=O)[C@H](C)NC(=O)[C@@H]1CSSC[C@H](NC(=O)[C@@H](N)CCCCNC(=O)CC[C@H](NC(=O)CCCCCCCCCCCCCCCCCCC(=O)O)C(=O)O)C(=O)N[C@@H](CC(N)=O)C(=O)N[C@@H]([C@@H](C)O)C(=O)N[C@@H](C)C(=O)N[C@@H]([C@@H](C)O)C(=O)N1)[C@@H](C)O)C(=O)N1CCC[C@H]1C(=O)N[C@@H](CO)C(=O)N[C@@H](CO)C(=O)N[C@H](C(=O)N[C@@H](CC(N)=O)C(=O)N[C@H](C(=O)NCC(=O)N[C@@H](CO)C(=O)N[C@@H](CC(N)=O)C(=O)N[C@H](C(=O)N1CCC[C@H]1C(N)=O)[C@@H](C)O)C(C)C)[C@@H](C)O
notes: also called compound 12
B3: N^α1-[(4S)-4-carboxy-4-[[(4S)-4-carboxy-4-(19-carboxynonadecanoylamino)butanoyl]amino]butanoyl]-[Glu14,Arg17,Pro21,Pro27,Pro37]-h-amylin (peptide)
peptide: {C20 diacid-γGlu-γGlu}-KCNTATCATQRLAEFLRHSSPNFGAIPSSTNVGSNTP-NH2
modifications: disulfide 2-7
SMILES: CC[C@H](C)[C@H](NC(=O)[C@H](C)NC(=O)CNC(=O)[C@H](Cc1ccccc1)NC(=O)[C@H](CC(N)=O)NC(=O)[C@@H]1CCCN1C(=O)[C@H](CO)NC(=O)[C@H](CO)NC(=O)[C@H](Cc1c[nH]cn1)NC(=O)[C@H](CCCNC(=N)N)NC(=O)[C@H](CC(C)C)NC(=O)[C@H](Cc1ccccc1)NC(=O)[C@H](CCC(=O)O)NC(=O)[C@H](C)NC(=O)[C@H](CC(C)C)NC(=O)[C@H](CCCNC(=N)N)NC(=O)[C@H](CCC(N)=O)NC(=O)[C@@H](NC(=O)[C@H](C)NC(=O)[C@@H]1CSSC[C@H](NC(=O)[C@H](CCCCN)NC(=O)CC[C@H](NC(=O)CC[C@H](NC(=O)CCCCCCCCCCCCCCCCCCC(=O)O)C(=O)O)C(=O)O)C(=O)N[C@@H](CC(N)=O)C(=O)N[C@@H]([C@@H](C)O)C(=O)N[C@@H](C)C(=O)N[C@@H]([C@@H](C)O)C(=O)N1)[C@@H](C)O)C(=O)N1CCC[C@H]1C(=O)N[C@@H](CO)C(=O)N[C@@H](CO)C(=O)N[C@H](C(=O)N[C@@H](CC(N)=O)C(=O)N[C@H](C(=O)NCC(=O)N[C@@H](CO)C(=O)N[C@@H](CC(N)=O)C(=O)N[C@H](C(=O)N1CCC[C@H]1C(N)=O)[C@@H](C)O)C(C)C)[C@@H](C)O
notes: also called compound 14
B4: N^ε1-[(4S)-4-carboxy-4-(19-carboxynonadecanoylamino)butanoyl]-[His14,Arg17,Pro21,Pro27,Pro34,Pro37]-h-amylin (peptide)
peptide: K([γGlu-C20 diacid])CNTATCATQRLAHFLRHSSPNFGAIPSSTNVGPNTP-NH2
modifications: disulfide 2-7; N-terminus assumed
SMILES: CC[C@H](C)[C@H](NC(=O)[C@H](C)NC(=O)CNC(=O)[C@H](Cc1ccccc1)NC(=O)[C@H](CC(N)=O)NC(=O)[C@@H]1CCCN1C(=O)[C@H](CO)NC(=O)[C@H](CO)NC(=O)[C@H](Cc1c[nH]cn1)NC(=O)[C@H](CCCNC(=N)N)NC(=O)[C@H](CC(C)C)NC(=O)[C@H](Cc1ccccc1)NC(=O)[C@H](Cc1c[nH]cn1)NC(=O)[C@H](C)NC(=O)[C@H](CC(C)C)NC(=O)[C@H](CCCNC(=N)N)NC(=O)[C@H](CCC(N)=O)NC(=O)[C@@H](NC(=O)[C@H](C)NC(=O)[C@@H]1CSSC[C@H](NC(=O)[C@@H](N)CCCCNC(=O)CC[C@H](NC(=O)CCCCCCCCCCCCCCCCCCC(=O)O)C(=O)O)C(=O)N[C@@H](CC(N)=O)C(=O)N[C@@H]([C@@H](C)O)C(=O)N[C@@H](C)C(=O)N[C@@H]([C@@H](C)O)C(=O)N1)[C@@H](C)O)C(=O)N1CCC[C@H]1C(=O)N[C@@H](CO)C(=O)N[C@@H](CO)C(=O)N[C@H](C(=O)N[C@@H](CC(N)=O)C(=O)N[C@H](C(=O)NCC(=O)N1CCC[C@H]1C(=O)N[C@@H](CC(N)=O)C(=O)N[C@H](C(=O)N1CCC[C@H]1C(N)=O)[C@@H](C)O)C(C)C)[C@@H](C)O
B5: N^ε1-[(4S)-4-carboxy-4-[[(4S)-4-carboxy-4-(19-carboxynonadecanoylamino)butanoyl]amino]butanoyl]-[Glu14,Arg17,Pro21,Pro27,Pro34,Glu35,Pro37]-h-amylin (peptide)
peptide: K([γGlu-γGlu-C20 diacid])CNTATCATQRLAEFLRHSSPNFGAIPSSTNVGPETP-NH2
modifications: disulfide 2-7; N-terminus assumed
SMILES: CC[C@H](C)[C@H](NC(=O)[C@H](C)NC(=O)CNC(=O)[C@H](Cc1ccccc1)NC(=O)[C@H](CC(N)=O)NC(=O)[C@@H]1CCCN1C(=O)[C@H](CO)NC(=O)[C@H](CO)NC(=O)[C@H](Cc1c[nH]cn1)NC(=O)[C@H](CCCNC(=N)N)NC(=O)[C@H](CC(C)C)NC(=O)[C@H](Cc1ccccc1)NC(=O)[C@H](CCC(=O)O)NC(=O)[C@H](C)NC(=O)[C@H](CC(C)C)NC(=O)[C@H](CCCNC(=N)N)NC(=O)[C@H](CCC(N)=O)NC(=O)[C@@H](NC(=O)[C@H](C)NC(=O)[C@@H]1CSSC[C@H](NC(=O)[C@@H](N)CCCCNC(=O)CC[C@H](NC(=O)CC[C@H](NC(=O)CCCCCCCCCCCCCCCCCCC(=O)O)C(=O)O)C(=O)O)C(=O)N[C@@H](CC(N)=O)C(=O)N[C@@H]([C@@H](C)O)C(=O)N[C@@H](C)C(=O)N[C@@H]([C@@H](C)O)C(=O)N1)[C@@H](C)O)C(=O)N1CCC[C@H]1C(=O)N[C@@H](CO)C(=O)N[C@@H](CO)C(=O)N[C@H](C(=O)N[C@@H](CC(N)=O)C(=O)N[C@H](C(=O)NCC(=O)N1CCC[C@H]1C(=O)N[C@@H](CCC(=O)O)C(=O)N[C@H](C(=O)N1CCC[C@H]1C(N)=O)[C@@H](C)O)C(C)C)[C@@H](C)O
B6: N^ε1-[(4S)-4-carboxy-4-[[(4S)-4-carboxy-4-(19-carboxynonadecanoylamino)butanoyl]amino]butanoyl]-[Glu14,Arg17,Pro21,Pro27,Pro37]-h-amylin (peptide)
peptide: K([γGlu-γGlu-C20 diacid])CNTATCATQRLAEFLRHSSPNFGAIPSSTNVGSNTP-NH2
modifications: disulfide 2-7; N-terminus assumed
SMILES: CC[C@H](C)[C@H](NC(=O)[C@H](C)NC(=O)CNC(=O)[C@H](Cc1ccccc1)NC(=O)[C@H](CC(N)=O)NC(=O)[C@@H]1CCCN1C(=O)[C@H](CO)NC(=O)[C@H](CO)NC(=O)[C@H](Cc1c[nH]cn1)NC(=O)[C@H](CCCNC(=N)N)NC(=O)[C@H](CC(C)C)NC(=O)[C@H](Cc1ccccc1)NC(=O)[C@H](CCC(=O)O)NC(=O)[C@H](C)NC(=O)[C@H](CC(C)C)NC(=O)[C@H](CCCNC(=N)N)NC(=O)[C@H](CCC(N)=O)NC(=O)[C@@H](NC(=O)[C@H](C)NC(=O)[C@@H]1CSSC[C@H](NC(=O)[C@@H](N)CCCCNC(=O)CC[C@H](NC(=O)CC[C@H](NC(=O)CCCCCCCCCCCCCCCCCCC(=O)O)C(=O)O)C(=O)O)C(=O)N[C@@H](CC(N)=O)C(=O)N[C@@H]([C@@H](C)O)C(=O)N[C@@H](C)C(=O)N[C@@H]([C@@H](C)O)C(=O)N1)[C@@H](C)O)C(=O)N1CCC[C@H]1C(=O)N[C@@H](CO)C(=O)N[C@@H](CO)C(=O)N[C@H](C(=O)N[C@@H](CC(N)=O)C(=O)N[C@H](C(=O)NCC(=O)N[C@@H](CO)C(=O)N[C@@H](CC(N)=O)C(=O)N[C@H](C(=O)N1CCC[C@H]1C(N)=O)[C@@H](C)O)C(C)C)[C@@H](C)O
notes: also called compound 13
B7: N^-1-[(4S)-4-carboxy-4-(19-carboxynonadecanoylamino)butanoyl]-Gly[Arg1,Ala14,Arg17,Pro21,Pro27,Pro34]-h-amylin (peptide)
peptide: {C20 diacid-γGlu}-GRCNTATCATQRLAAFLRHSSPNFGAIPSSTNVGPNTY-NH2
modifications: disulfide 3-8

Key:
[1] = biological target: T1, human amylin 3(a) receptor (human …); experiment: cell-based or functional assay
[2] = biological target: T2, human calcitonin receptor; experiment: cell-based or functional assay

| hAmylin-R funct. EC50 (pM) [1] | Ratio hCT/hAmylin funct. [2] | hCTR funct. EC50 (pM) [2] | Binder |
| --- | --- | --- | --- |
| 80 pM | 3.6 |  | B1 |
| 101 pM | 1.8 |  | B2 |
| 146 pM | 1.6 |  | B3 |
| 52 pM | 0.8 |  | B4 |
| 132 pM | 0.8 | 102 pM | B5 |
| 213 pM | 2.2 |  | B6 |
| 70 pM | 2.1 |  | B7 |
